# Results: paper PMC9122893 (Cell host & microbe, 2021)
# T1: IpaH7.8 wild-type (recombinant) (Shigella flexneri, UniProt P18014 2-565)
# T1 sequence: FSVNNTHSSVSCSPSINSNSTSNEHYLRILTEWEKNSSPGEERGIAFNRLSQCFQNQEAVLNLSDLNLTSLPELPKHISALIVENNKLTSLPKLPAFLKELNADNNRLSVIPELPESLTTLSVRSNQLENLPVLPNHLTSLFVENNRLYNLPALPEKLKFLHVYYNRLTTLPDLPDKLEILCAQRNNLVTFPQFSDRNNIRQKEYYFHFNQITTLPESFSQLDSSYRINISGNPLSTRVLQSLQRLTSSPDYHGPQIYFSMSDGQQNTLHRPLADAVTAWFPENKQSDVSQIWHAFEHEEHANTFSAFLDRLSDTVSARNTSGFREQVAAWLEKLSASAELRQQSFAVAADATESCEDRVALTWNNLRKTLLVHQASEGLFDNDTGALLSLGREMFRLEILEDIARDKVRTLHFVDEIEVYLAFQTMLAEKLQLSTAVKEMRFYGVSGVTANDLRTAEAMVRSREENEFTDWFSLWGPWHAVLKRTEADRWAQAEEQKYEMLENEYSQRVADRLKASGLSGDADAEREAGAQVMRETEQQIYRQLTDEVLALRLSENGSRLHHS
# Target: T1, IpaH7.8 wild-type (recombinant)
# Assay: MST
binder,measurement,value
"hsGSDMD-1D4 (purified, dye-labelled) (natural protein, labelled with the 2nd generation red-maleimide dye (Nanotemper protein labeling kit)) MGSAFERVVRRVVQELDHGGEFIPVTSLQSSTGFQPYCLVVRKPSSSWFWKPRYKCVNLSIKDILEPDAAEPDVQRGRSFHFYDAMDGQIQGSVELAAPGQAKIAGGAAVSDSSSTSMNVYSLSVDPNTWQTLLHERHLRQPEHKVLQQLRSRGDNVYVVTEVLQTQKEVEVTRTHKREGSGRFSLPGATCLQGEGQGHLSQKKTVTIPSGSTLAFRVAQLVIDSDLDVLLFPDKKQRTFQPPATGHKRSTSEGAWPQLPSGLSMMRCLHNFLTDGVPAEGAFTEDFQGLRAEVETISKELELLDRELCQLLLEGLEGVLRDQLALRALEEALEQGQSLGPVEPLDGPAGAVLECLVLSSGMLVPELAIPVVYLLGALTMLSETQHKLLAEALESQTLLGPLELVGSLLEQSAPWQERSTMSLPPGLLGNSWGEGAPAWVLLDECGLELGEDTPHVCWEPQAQGRMCALYASLALLSGLSQEPH",Kd,194 nM
